Key:
[1] = biological target: SDS22-KR7A (purified) (human) (UniProt Q15435); assay: ITC; 5 μM SDS22 in the cell titrated with 50 μM His-I3 (20 injections), 22 °C, MicroCal iTC200; binding curves not saturated
LgBiT-PP1α = LgBiT-PP1α (UniProt P62136); assay: lysate-based split-luciferase complementation; conditions: mixed HEK293T lysates; signals normalized for the same expression level; n = 3; parent: est. 100; read off a plot
EGFP-I3-DE4A (human) = EGFP-I3-DE4A (human) (UniProt O60927); assay: co-IP; EGFP-trap (anti-EGFP nanobodies on agarose, 2 h, 4 °C) of transiently expressed EGFP fusions from HEK293T lysates (20 mM Tris pH 7.9, 0.3 M NaCl, 0.5% Triton X-100); endogenous partners by immunoblot
EGFP-I3-DE4A (human), sequence (O60927 whole entry, the tested form may be a part): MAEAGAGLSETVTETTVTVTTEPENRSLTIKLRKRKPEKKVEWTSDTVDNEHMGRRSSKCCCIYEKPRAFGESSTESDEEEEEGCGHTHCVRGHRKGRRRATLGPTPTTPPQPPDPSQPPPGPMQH

LgBiT-PP1α, sequence (P62136 whole entry, the tested form may be a part): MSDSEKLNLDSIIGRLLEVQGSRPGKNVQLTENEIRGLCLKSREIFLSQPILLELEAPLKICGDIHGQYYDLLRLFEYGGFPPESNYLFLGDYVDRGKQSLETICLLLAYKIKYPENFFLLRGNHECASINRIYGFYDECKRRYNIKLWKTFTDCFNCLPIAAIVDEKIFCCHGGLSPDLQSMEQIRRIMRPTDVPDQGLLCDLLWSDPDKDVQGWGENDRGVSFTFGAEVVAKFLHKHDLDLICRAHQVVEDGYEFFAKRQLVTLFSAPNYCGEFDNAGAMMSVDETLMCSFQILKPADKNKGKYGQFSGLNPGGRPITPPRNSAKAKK
I2-SmBiT, sequence (P41236 whole entry, change not shown): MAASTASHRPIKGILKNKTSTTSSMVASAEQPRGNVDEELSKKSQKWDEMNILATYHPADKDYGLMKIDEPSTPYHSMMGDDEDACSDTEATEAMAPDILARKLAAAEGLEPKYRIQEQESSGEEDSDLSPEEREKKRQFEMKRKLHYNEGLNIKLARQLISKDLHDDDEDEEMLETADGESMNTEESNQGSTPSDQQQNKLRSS
RM-SmBiT, sequence (Q69YH5 whole entry, change not shown): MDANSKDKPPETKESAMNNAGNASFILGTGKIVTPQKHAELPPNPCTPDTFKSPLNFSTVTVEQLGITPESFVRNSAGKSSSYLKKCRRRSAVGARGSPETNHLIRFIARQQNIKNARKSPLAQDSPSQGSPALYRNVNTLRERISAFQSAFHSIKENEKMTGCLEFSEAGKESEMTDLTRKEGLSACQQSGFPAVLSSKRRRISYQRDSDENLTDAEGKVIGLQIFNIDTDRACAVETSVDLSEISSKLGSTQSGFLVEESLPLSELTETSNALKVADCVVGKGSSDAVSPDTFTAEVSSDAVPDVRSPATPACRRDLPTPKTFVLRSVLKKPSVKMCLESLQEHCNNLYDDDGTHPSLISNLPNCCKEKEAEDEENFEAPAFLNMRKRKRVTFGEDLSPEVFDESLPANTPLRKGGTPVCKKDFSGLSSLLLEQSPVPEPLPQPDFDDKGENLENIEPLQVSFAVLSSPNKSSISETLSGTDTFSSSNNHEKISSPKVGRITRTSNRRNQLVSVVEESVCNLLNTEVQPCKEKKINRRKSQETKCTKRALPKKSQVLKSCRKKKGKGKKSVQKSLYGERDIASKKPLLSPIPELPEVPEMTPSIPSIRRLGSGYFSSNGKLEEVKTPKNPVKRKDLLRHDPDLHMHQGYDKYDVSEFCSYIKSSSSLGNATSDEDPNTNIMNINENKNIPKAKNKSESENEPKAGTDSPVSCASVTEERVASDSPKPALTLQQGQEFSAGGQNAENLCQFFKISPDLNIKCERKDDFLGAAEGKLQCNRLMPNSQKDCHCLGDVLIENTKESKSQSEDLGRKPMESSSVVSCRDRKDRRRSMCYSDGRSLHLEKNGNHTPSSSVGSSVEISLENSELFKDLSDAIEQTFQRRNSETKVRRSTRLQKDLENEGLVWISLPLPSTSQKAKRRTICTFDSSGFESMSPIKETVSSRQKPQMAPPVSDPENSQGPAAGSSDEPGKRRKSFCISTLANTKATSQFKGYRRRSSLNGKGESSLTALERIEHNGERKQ
PP1 (endogenous, HEK293T), sequence (P62136 whole entry): as the sequence (P62136 whole entry, the tested form may be a part) above
SDS22-KR7A (purified) (human), sequence (Q15435 whole entry): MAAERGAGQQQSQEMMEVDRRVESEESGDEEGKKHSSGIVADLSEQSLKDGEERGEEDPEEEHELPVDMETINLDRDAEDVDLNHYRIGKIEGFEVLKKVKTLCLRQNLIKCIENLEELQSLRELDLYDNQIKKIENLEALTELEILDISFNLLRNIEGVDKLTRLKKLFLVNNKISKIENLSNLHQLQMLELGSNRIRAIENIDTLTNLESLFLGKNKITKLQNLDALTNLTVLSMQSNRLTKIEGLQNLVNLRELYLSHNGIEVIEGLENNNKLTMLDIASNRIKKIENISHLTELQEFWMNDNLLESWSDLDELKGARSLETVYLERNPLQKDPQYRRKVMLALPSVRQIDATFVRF
I3^WT-SmBiT, sequence (O60927 whole entry, change not shown): as the sequence (O60927 whole entry, the tested form may be a part) above
His-I3, sequence (O60927 whole entry): as the sequence (O60927 whole entry, the tested form may be a part) above

Row | Substance | percent of parent (% of RIPPOs^WT-SmBiT) (LgBiT-PP1α) | also measured
1 | His-I3 (from UniProt O60927 1-126) (natural protein) |  | Kd [1]: 128 µM
2 | I2-SmBiT (from UniProt P41236) RATA | 32 | 
3 | I3^WT-SmBiT (from UniProt O60927) RATA | 6 | 
4 | PP1 (endogenous, HEK293T) (from UniProt P62136 1-330) (enzyme) |  | percent decrease of binding against EGFP-I3-WT (EGFP-I3-DE4A (human)): 35%
5 | RM-SmBiT (from UniProt Q69YH5) RATA | 10 | 

From paper PMC11199634
